Consider three substances from doi:10.1101/2025.05.30.657017.

The target in assay [1] is MtrR, endogenous in M. mazei (Methanosarcina mazei (endogenous in M. mazei)). The assay can be described thus: western blot of the strep-tactin eluate. (In general: In western blotting, separated proteins are transferred to a membrane and probed.)
Assay [2] deals with strep-tagged soluble domain of the MtrA subunit (M1 - S168), RED labeled (Methanosarcina mazei) (UniProt O59640). The assay can be described thus: MST.
Assay [3] addresses MtrR-His6 constitutively expressed in M. mazei (pRS2087) (Methanosarcina mazei Gö1). Description: IMAC purification and western blot.

UniProt O59640, sequence (O59640 1-168): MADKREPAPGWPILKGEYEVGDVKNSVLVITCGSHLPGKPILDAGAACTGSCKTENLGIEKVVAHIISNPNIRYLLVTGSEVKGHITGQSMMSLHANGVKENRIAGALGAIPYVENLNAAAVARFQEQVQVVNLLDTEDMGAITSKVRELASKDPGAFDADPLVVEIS

For “MtrR, endogenous in M. mazei (natural protein)”, in assay [1], the stoichiometry N – broadly, the number of molecules, sites or subunits per partner or assembly – worked out at 2.
“MtrR-His6 (small protein MtrR encoded by small ORF16, C-terminal his-tag), heterologously expressed in E. coli (natural protein)”: the Kd – broadly, the equilibrium constant for the complex coming apart – in assay [2] was 110 nM.
For the substance “MtrR-His6 constitutively expressed in M. mazei (pRS2087) (natural protein)”, in assay [3], the stoichiometry N was 2.
